Changes are numbered by the printed parent chain.
T1: HuCDCP1-C (Homo sapiens, UniProt Q9H5V8)
T1 construct: made in house; host or cells: HEK-293T
T1 sequence (Q9H5V8 30-667): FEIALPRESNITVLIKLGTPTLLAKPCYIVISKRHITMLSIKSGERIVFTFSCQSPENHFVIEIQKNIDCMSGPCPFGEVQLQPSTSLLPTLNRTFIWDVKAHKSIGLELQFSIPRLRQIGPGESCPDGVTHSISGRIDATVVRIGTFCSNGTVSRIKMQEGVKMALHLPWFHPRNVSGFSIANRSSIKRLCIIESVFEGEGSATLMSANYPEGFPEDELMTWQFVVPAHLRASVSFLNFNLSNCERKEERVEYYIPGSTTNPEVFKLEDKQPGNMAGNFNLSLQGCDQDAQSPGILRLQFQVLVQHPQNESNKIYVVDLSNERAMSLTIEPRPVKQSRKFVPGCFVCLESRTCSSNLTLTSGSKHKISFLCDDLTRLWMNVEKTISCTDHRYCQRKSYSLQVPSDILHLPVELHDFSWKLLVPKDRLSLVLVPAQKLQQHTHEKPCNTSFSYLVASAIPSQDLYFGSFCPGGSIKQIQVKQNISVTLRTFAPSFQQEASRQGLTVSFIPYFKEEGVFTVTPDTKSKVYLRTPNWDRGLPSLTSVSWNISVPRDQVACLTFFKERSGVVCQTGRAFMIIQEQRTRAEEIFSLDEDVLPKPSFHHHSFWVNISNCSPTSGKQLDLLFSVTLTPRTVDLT

B1: 1CP-117: humanized anti-CDCP1 antibody produced by 8E5; VH SEQ ID NO: 348, VL SEQ ID NO: 358 (antibody, V domains shown)
VH: QVQLVQSGSELKKPGASVKVSCKASGYTLTDFSMHWVRQAPGQGLEWMGWINTETGAPTYADDFKGRFVLSLDTSVSTAYLQISSLKAEDTAVYYCSRGRDYDPHFDYWGQGTLVTVSS
VL: EIVLTQSPATLSLSPGERATLSCRASQSISDFLHWYQQKPGQSPRLLIKYASQSISGIPARFSGSGSGSDFTLTISSVEPEDFAVYYCQSAHSFPYTFGQGTKLEIK
modifications: humanized antibody 8E5 heavy chain variable region 01; humanized antibody 8E5 light chain variable region 02
B2: 1CP-121: humanized anti-CDCP1 antibody produced by 8E5; VH SEQ ID NO: 348, VL SEQ ID NO: 359 (antibody, V domains shown)
VH: B1 VH
VL: B1 VL with P40S
modifications: humanized antibody 8E5 heavy chain variable region 01; humanized antibody 8E5 light chain variable region 03
B3: 1CP-124: humanized anti-CDCP1 antibody produced by 3C11; VH SEQ ID NO: 339, VL SEQ ID NO: 351 (antibody, V domains shown)
VH: QVQLVQSGAEVKKPGASVKVSCKASGYNFISYWLHWVRQAPGQGLEWMGGIYPGNTDTTYNQKFKGRVTMTRDTSTSTVYMELSSLRSEDTAVYYCIRYDYDRGMDYWGQGTLVTVSS
VL: DIQMTQSPSSLSASVGDRVTITCRASEDIYYRLAWYQQKPGKAPKLLISGATALETGVPSRFSGSGSGKDYTFTISSLQPEDIATYYCQHYWNIPWTFGQGTKVEIK
modifications: humanized antibody 3C11 heavy chain variable region 01; humanized antibody 3C11 light chain variable region 01
B4: 1CP-125: humanized anti-CDCP1 antibody produced by 3C11; VH SEQ ID NO: 340, VL SEQ ID NO: 351 (antibody, V domains shown)
VH: B3 VH with R72A
VL: B3 VL
modifications: humanized antibody 3C11 heavy chain variable region 02; humanized antibody 3C11 light chain variable region 01
B5: 1CP-128: humanized anti-CDCP1 antibody produced by 3C11; VH SEQ ID NO: 339, VL SEQ ID NO: 352 (antibody, V domains shown)
VH: B3 VH
VL: B3 VL with F73L
modifications: humanized antibody 3C11 heavy chain variable region 01; humanized antibody 3C11 light chain variable region 02

target: T1, HuCDCP1-C; assay: Caterra affinity of humanized anti-CDCP1 antibodies; assay type: binding; details: HuCDCP1-C 2 μg/ml immobilized
Method: The humanized anti-CDCP1 antibodies obtained from Example 11 were subjected to gene cloning, constructed into pTT5 expression vector for a small amount of expression in CHO cells (Expi-CHOS: Gibco A29127), and purified with an Fc affinity column (AT Protein A Diamond Plus. No. AA402312). Antibody purity was analyzed by HPLC and determined by Nanodrop. High-throughput affinity assay was carried out for a small amount of antibodies by Caterra.

Q: B1 was tested. Which “ka” value did it give?
A: 152000 M⁻¹ s⁻¹

Q: And the “kd” value?
A: 3.93e-05 s⁻¹

Q: Which results are given for B2?
A: ka: 148000 M⁻¹ s⁻¹; kd: 1e-05 s⁻¹

Q: B3 was tested. Which “ka” value did it give?
A: 148000 M⁻¹ s⁻¹

Q: And the “kd” value?
A: 1.47e-05 s⁻¹

Q: B4 was tested. Which “ka” value did it give?
A: 151000 M⁻¹ s⁻¹

Q: What about the “kd” value of the same molecule?
A: 2.17e-05 s⁻¹

Q: B5 was tested. Which “ka” value did it give?
A: 139000 M⁻¹ s⁻¹

Q: And the “kd” value?
A: 1e-05 s⁻¹

tested on: MDA-MB-231 cells; assay: Endocytosis capacity of humanized antibodies; assay type: cell-based, human; details: MDA-MB-231, 1 h at 37° C., antibody 1.5 μg/mL
Method: The endocytosis capacity of the anti-CDCP1 humanized antibody was detected with reference to example 5. MDA-MB-231 cells were subjected to digestion with 5 mM EDTA, and plated at 3×10^4 cells/well after cell counting. After adding an Fc blocker and blocking at room temperature for 10 mins, a test antibody (1.5 μg/mL) was added, and the mixture was incubated at 4° C. for 30 mins, centrifuged, and washed twice with PBS+2% FBS, then the cells were divided into three equal portions (labeled as 0 h, 1 h, 2 h), cells labeled as 1 h and 2 h time points were added to 200 μL of cell culture medium, and cultured at 37° C. for 1 h and 2 h, respectively. Cells at 0 h point were centrifuged, a secondary antibody (PE anti-human IgG Fc Antibody, Biolegend, 410708) was added, and the mixture was incubated at 4° C. for 30 mins, centrifuged, and washed twice with PBS+2% FBS, and detection was performed using a flow cytometer. After incubation of cells labeled as 1 h and 2 h points at 37° C. was completed, a secondary antibody was added (in the same steps as those at 0 h point), Geo-MFI of the signal under the same voltage was collected as detection signal at 0 h, and antibody internalization rate was calculated according to the following equation: Internalization (%)=(Geo-MFI (0 h)-Geo-MFI (1, 2 h))/Geo-MFI (0 h)×100%.

Q: For B1, which “1 h endocytosis (%)” value is on record?
A: 45.68%

Q: Which “1 h endocytosis (%)” value does the source give for B2 here?
A: 51.49%

Q: With B3 as the molecule, how does the “1 h endocytosis (%)” value read?
A: 38.17%

Q: B4 was tested. Which “1 h endocytosis (%)” value did it give?
A: 79.56%

Q: B5 was tested. Which “1 h endocytosis (%)” value did it give?
A: 36.87%

same assay, conditions: MDA-MB-231, 2 h at 37° C., antibody 1.5 μg/mL

Q: With B1 as the molecule, how does the “2 h endocytosis (%)” value read?
A: 68.37%

Q: For B2, which “2 h endocytosis (%)” value is on record?
A: 72.98%

Q: How did the “2 h endocytosis (%)” value turn out when B3 was run?
A: 56.39%

Q: How did the “2 h endocytosis (%)” value turn out when B4 was run?
A: 88.62%

Q: With B5 as the molecule, how does the “2 h endocytosis (%)” value read?
A: 55.68%
